The values below come from the supplement of paper PMC9112550, “Optimization of the antimicrobial peptide Bac7 by deep mutational scanning” (BMC Biology, 2022).

The test system of this data set is Escherichia coli TOP10. Nature of the data set: shrunken log2 fold change of peptide-encoding DNA abundance (4.5 h post-induction vs induction); higher = less antimicrobial activity (less host growth inhibition). The settings on record: time post-induction: 4.5 h; library: site-saturation at positions 5, 18, 19, 20.
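Further: peptides expressed intracellularly from a pBAD plasmid library in pooled LB shake-flask culture, induced with 0.3% L-arabinose, DNA abundance read by NGS, three biological replicates, DESeq2 with apeglm shrinkage.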

In the case of RRIRWRPPRLPRPRPRPQWGPRP, the “shrunken log2 fold change” value was determined as 0.293.
With RRIRPRPPRLPRPRPRPWIHPRP the figure was -0.44; with RRIRCRPPRLPRPRPRPHRMPRP, -0.401; with RRIRLRPPRLPRPRPRPGGEPRP, 0.343.
Consider RRIRQRPPRLPRPRPRPAGNPRP, for which the “shrunken log2 fold change” value is -0.0449.
With RRIRNRPPRLPRPRPRPHCQPRP, the “shrunken log2 fold change” value was -0.861.
Take RRIRWRPPRLPRPRPRPMIGPRP: the “shrunken log2 fold change” value came out at 0.384.
As to RRIRWRPPRLPRPRPRPVRDPRP, the “shrunken log2 fold change” value was determined as 0.687.
On to RRIRQRPPRLPRPRPRPCLDPRP, for which the “shrunken log2 fold change” value was -0.0986.
Consider RRIRIRPPRLPRPRPRPESSPRP, for which the “shrunken log2 fold change” value was -0.0745.
RRIRVRPPRLPRPRPRPVVAPRP: the “shrunken log2 fold change” value was found to be 0.17.
As for RRIRMRPPRLPRPRPRPKQMPRP, the “shrunken log2 fold change” value was 1.25.
As for RRIRERPPRLPRPRPRPPWNPRP, the “shrunken log2 fold change” value is -0.246.
As for RRIRTRPPRLPRPRPRPVTQPRP, the “shrunken log2 fold change” value is 0.0354.
On to RRIRNRPPRLPRPRPRPACPPRP, for which the “shrunken log2 fold change” value was found to be 0.307.
With RRIRMRPPRLPRPRPRPAIYPRP the figure was 0.0389; with RRIRHRPPRLPRPRPRPYVAPRP, -0.912; with RRIRARPPRLPRPRPRPFFNPRP, -0.0671.
Next, RRIRTRPPRLPRPRPRPFYQPRP: -0.65.
Consider RRIRIRPPRLPRPRPRPTYYPRP, for which the “shrunken log2 fold change” value is -0.827.
With RRIRPRPPRLPRPRPRPQLTPRP the figure was -0.221.
As for RRIRKRPPRLPRPRPRPIQVPRP, the “shrunken log2 fold change” value is -0.137.
In the case of RRIRHRPPRLPRPRPRPRGSPRP, the “shrunken log2 fold change” value was -0.00481.
Next, RRIRMRPPRLPRPRPRPVIHPRP: 0.0153; RRIRRRPPRLPRPRPRPPILPRP: -0.1; RRIRHRPPRLPRPRPRPTKCPRP: -0.0314.
In the case of RRIRGRPPRLPRPRPRPHYRPRP, the “shrunken log2 fold change” value was 0.231.
RRIRERPPRLPRPRPRPDDKPRP: the “shrunken log2 fold change” value is -0.433.
With RRIRERPPRLPRPRPRPDQCPRP the figure was -0.308.
On to RRIRTRPPRLPRPRPRPYVSPRP, for which the “shrunken log2 fold change” value was -0.244.
With RRIRFRPPRLPRPRPRPMQCPRP the figure was 0.188; with RRIRCRPPRLPRPRPRPASQPRP, -0.0515; with RRIRARPPRLPRPRPRPREFPRP, 0.441.
With RRIRARPPRLPRPRPRPIPQPRP the figure was -0.0224.
Consider RRIRRRPPRLPRPRPRPCMVPRP, for which the “shrunken log2 fold change” value is 0.106.
Next, RRIRYRPPRLPRPRPRPICPPRP: -0.471; RRIRVRPPRLPRPRPRPTQPPRP: -0.0625; RRIRMRPPRLPRPRPRPVMCPRP: 0.321.
For RRIRQRPPRLPRPRPRPMRGPRP, the “shrunken log2 fold change” value came to 0.904.
Regarding RRIRDRPPRLPRPRPRPTSPPRP, the “shrunken log2 fold change” value was -0.267.
On to RRIRYRPPRLPRPRPRPHNYPRP, for which the “shrunken log2 fold change” value was -0.365.
Consider RRIRERPPRLPRPRPRPDHQPRP, for which the “shrunken log2 fold change” value is -0.223.
As for RRIRDRPPRLPRPRPRPINIPRP, the “shrunken log2 fold change” value was -0.282.
Next, RRIRSRPPRLPRPRPRPHQDPRP: -0.117; RRIRNRPPRLPRPRPRPNARPRP: 0.0522; RRIRDRPPRLPRPRPRPDAFPRP: 0.297.
On to RRIRLRPPRLPRPRPRPVPRPRP, for which the “shrunken log2 fold change” value was 0.352.
Take RRIRCRPPRLPRPRPRPSREPRP: the “shrunken log2 fold change” value is -0.184.
Consider RRIRHRPPRLPRPRPRPHYMPRP, for which the “shrunken log2 fold change” value was -0.854.
Regarding RRIRLRPPRLPRPRPRPRCPPRP, the “shrunken log2 fold change” value amounted to 0.188.
Consider RRIRSRPPRLPRPRPRPKYNPRP, for which the “shrunken log2 fold change” value was -0.62.
As for RRIRPRPPRLPRPRPRPTDTPRP, the “shrunken log2 fold change” value is -0.00249.
With RRIRFRPPRLPRPRPRPMPWPRP, the “shrunken log2 fold change” value worked out at 0.157.
On to RRIRWRPPRLPRPRPRPCHPPRP, for which the “shrunken log2 fold change” value is -0.11.
Next, RRIRCRPPRLPRPRPRPDRKPRP: -0.458; RRIRFRPPRLPRPRPRPPSWPRP: 0.4.
Consider RRIRPRPPRLPRPRPRPRGGPRP, for which the “shrunken log2 fold change” value was 0.605.
In the case of RRIRQRPPRLPRPRPRPTLAPRP, the “shrunken log2 fold change” value turned out to be 0.783.
As for RRIRIRPPRLPRPRPRPGWRPRP, the “shrunken log2 fold change” value came out at 0.468.
Next, RRIRWRPPRLPRPRPRPYMNPRP: -1.44.
As to RRIRLRPPRLPRPRPRPAKFPRP, the “shrunken log2 fold change” value came out at 0.0249.
As to RRIRTRPPRLPRPRPRPQMDPRP, the “shrunken log2 fold change” value was -0.195.
For RRIRCRPPRLPRPRPRPCKSPRP, the “shrunken log2 fold change” value was -0.0591.
Take RRIRVRPPRLPRPRPRPDTDPRP: the “shrunken log2 fold change” value was -0.646.
Next, RRIRCRPPRLPRPRPRPMSKPRP: -0.5; RRIRNRPPRLPRPRPRPSFSPRP: -0.322.
Regarding RRIRWRPPRLPRPRPRPNTRPRP, the “shrunken log2 fold change” value was 0.15.
As for RRIRGRPPRLPRPRPRPSNRPRP, the “shrunken log2 fold change” value turned out to be 0.113.
Next, RRIRHRPPRLPRPRPRPHHHPRP: -1; RRIRDRPPRLPRPRPRPQSWPRP: -0.0644.
In the case of RRIRRRPPRLPRPRPRPTQWPRP, the “shrunken log2 fold change” value came to 0.183.
Consider RRIRTRPPRLPRPRPRPHHLPRP, for which the “shrunken log2 fold change” value came to 0.0331.
RRIRYRPPRLPRPRPRPDWPPRP: the “shrunken log2 fold change” value was -0.0212.
Consider RRIRRRPPRLPRPRPRPANGPRP, for which the “shrunken log2 fold change” value was -0.164.
For the sequence RRIRERPPRLPRPRPRPGWSPRP, the “shrunken log2 fold change” value stood at 0.135.
RRIRSRPPRLPRPRPRPRMKPRP: the “shrunken log2 fold change” value is -0.0423.
For RRIRWRPPRLPRPRPRPTHAPRP, the “shrunken log2 fold change” value is 0.787.
As to RRIRWRPPRLPRPRPRPMGNPRP, the “shrunken log2 fold change” value is -0.0828.
RRIRGRPPRLPRPRPRPLQIPRP: the “shrunken log2 fold change” value was 0.803.
As to RRIRARPPRLPRPRPRPVSWPRP, the “shrunken log2 fold change” value was 0.813.
For RRIRVRPPRLPRPRPRPKFTPRP, the “shrunken log2 fold change” value is -0.0442.
As for RRIRLRPPRLPRPRPRPTVKPRP, the “shrunken log2 fold change” value was -0.0583.
With RRIRSRPPRLPRPRPRPQSFPRP the figure was -0.0939; with RRIRCRPPRLPRPRPRPYCRPRP, -0.0628; with RRIRKRPPRLPRPRPRPIGAPRP, 0.479.
On to RRIRCRPPRLPRPRPRPLKVPRP, for which the “shrunken log2 fold change” value was -0.284.
Turning to RRIRYRPPRLPRPRPRPGDVPRP, the “shrunken log2 fold change” value was -0.484.
With RRIRSRPPRLPRPRPRPSGWPRP the figure was 0.434.
Take RRIRRRPPRLPRPRPRPMGAPRP: the “shrunken log2 fold change” value came to 0.658.
Take RRIRSRPPRLPRPRPRPVFWPRP: the “shrunken log2 fold change” value was 0.365.
With RRIRWRPPRLPRPRPRPQLTPRP, the “shrunken log2 fold change” value was found to be 0.325.
Take RRIRCRPPRLPRPRPRPWFVPRP: the “shrunken log2 fold change” value is -0.629.
Consider RRIRARPPRLPRPRPRPYHNPRP, for which the “shrunken log2 fold change” value is -1.16.
On to RRIRPRPPRLPRPRPRPTPMPRP, for which the “shrunken log2 fold change” value is 0.208.
For the sequence RRIRTRPPRLPRPRPRPEAAPRP, the “shrunken log2 fold change” value worked out at 0.574.
Regarding RRIRERPPRLPRPRPRPYNAPRP, the “shrunken log2 fold change” value is -1.26.
As for RRIRERPPRLPRPRPRPDIEPRP, the “shrunken log2 fold change” value was -0.0223.
For the sequence RRIRVRPPRLPRPRPRPDCHPRP, the “shrunken log2 fold change” value was -0.296.
On to RRIRIRPPRLPRPRPRPICNPRP, for which the “shrunken log2 fold change” value is -0.607.
With RRIRRRPPRLPRPRPRPCWKPRP, the “shrunken log2 fold change” value is 0.0297.
Take RRIRERPPRLPRPRPRPWEQPRP: the “shrunken log2 fold change” value is -0.131.
RRIRERPPRLPRPRPRPADRPRP: the “shrunken log2 fold change” value was -0.173.
RRIRERPPRLPRPRPRPSYHPRP: the “shrunken log2 fold change” value was -0.66.
As to RRIRARPPRLPRPRPRPPQMPRP, the “shrunken log2 fold change” value turned out to be 0.868.
Consider RRIRTRPPRLPRPRPRPWPQPRP, for which the “shrunken log2 fold change” value stood at 0.323.
As to RRIRCRPPRLPRPRPRPRNLPRP, the “shrunken log2 fold change” value was -0.222.
For RRIRERPPRLPRPRPRPFTIPRP, the “shrunken log2 fold change” value is -0.162.
RRIRLRPPRLPRPRPRPIFYPRP: the “shrunken log2 fold change” value was -0.223.
As to RRIRYRPPRLPRPRPRPCHYPRP, the “shrunken log2 fold change” value was -0.00968.
In the case of RRIRSRPPRLPRPRPRPQILPRP, the “shrunken log2 fold change” value was -0.0216.
Next, RRIRYRPPRLPRPRPRPWQTPRP: -0.0202.
As to RRIRNRPPRLPRPRPRPRCMPRP, the “shrunken log2 fold change” value was -0.5.
Consider RRIRIRPPRLPRPRPRPDQQPRP, for which the “shrunken log2 fold change” value is 0.062.
For the sequence RRIRSRPPRLPRPRPRPNQHPRP, the “shrunken log2 fold change” value is -0.201.
As for RRIRIRPPRLPRPRPRPAQPPRP, the “shrunken log2 fold change” value was 0.213.
As for RRIRWRPPRLPRPRPRPTHSPRP, the “shrunken log2 fold change” value was 0.331.
Regarding RRIRCRPPRLPRPRPRPPPGPRP, the “shrunken log2 fold change” value worked out at 1.47.
As for RRIRIRPPRLPRPRPRPIQMPRP, the “shrunken log2 fold change” value was -0.203.
Take RRIRQRPPRLPRPRPRPTRIPRP: the “shrunken log2 fold change” value came to 0.0389.
With RRIRDRPPRLPRPRPRPFRKPRP the figure was -0.0314; with RRIRDRPPRLPRPRPRPRYAPRP, 0.215; with RRIRVRPPRLPRPRPRPAWKPRP, 0.106.
For the sequence RRIRWRPPRLPRPRPRPPPLPRP, the “shrunken log2 fold change” value is 1.32.
RRIRRRPPRLPRPRPRPGGDPRP: the “shrunken log2 fold change” value turned out to be 0.48.
In the case of RRIRHRPPRLPRPRPRPWWKPRP, the “shrunken log2 fold change” value is -0.0848.
